T1: human IL-22 receptor complex IL22R1 and IL10R2, overexpressed on HEK 293 cells (human) (UniProt Q8N6P7)
T1 sequence (looked up) 1: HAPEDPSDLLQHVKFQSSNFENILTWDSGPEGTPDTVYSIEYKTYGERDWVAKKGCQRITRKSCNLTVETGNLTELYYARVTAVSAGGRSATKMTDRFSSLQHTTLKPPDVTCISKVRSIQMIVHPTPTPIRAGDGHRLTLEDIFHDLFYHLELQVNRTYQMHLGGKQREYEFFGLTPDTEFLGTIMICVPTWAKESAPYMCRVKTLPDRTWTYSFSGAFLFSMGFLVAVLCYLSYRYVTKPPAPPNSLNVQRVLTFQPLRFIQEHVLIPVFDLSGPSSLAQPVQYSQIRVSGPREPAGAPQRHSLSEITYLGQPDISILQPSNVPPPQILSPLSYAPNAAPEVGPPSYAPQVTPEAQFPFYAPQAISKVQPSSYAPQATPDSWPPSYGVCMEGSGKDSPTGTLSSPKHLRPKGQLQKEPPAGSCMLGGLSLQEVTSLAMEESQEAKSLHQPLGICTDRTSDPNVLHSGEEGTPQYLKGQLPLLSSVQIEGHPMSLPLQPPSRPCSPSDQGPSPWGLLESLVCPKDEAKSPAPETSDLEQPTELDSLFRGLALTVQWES
T1 sequence (looked up) 2: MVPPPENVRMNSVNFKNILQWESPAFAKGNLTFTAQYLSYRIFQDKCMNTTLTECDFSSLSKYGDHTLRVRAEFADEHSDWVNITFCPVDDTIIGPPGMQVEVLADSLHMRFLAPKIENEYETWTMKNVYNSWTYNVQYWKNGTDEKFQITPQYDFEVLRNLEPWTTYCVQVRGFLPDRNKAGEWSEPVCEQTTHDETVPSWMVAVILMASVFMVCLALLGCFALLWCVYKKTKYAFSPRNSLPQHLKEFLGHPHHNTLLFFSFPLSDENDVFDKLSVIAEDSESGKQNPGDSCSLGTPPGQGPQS

B1: IL-22 Fc construct 18 (huIgG1, linker …, N297G, produced in CHO) (Fc fusion, not shown: a dimerising Fc or GST)
chain: APISSHCRLDKSNFQQPYITNRTFMLAKEASLADNNTDVRLIGEKLFHGVSMSERCYLMKQVLNFTLEEVLFPQSDRFQPYMQEVVPFLARLSNRLSTCHIEGDDLHIQRNVQKLKDTVKKLGESGEIKAIGELDLLFMSLRNACIKKVEPKSSDKTHT
B2: IL-22 Fc construct 12 (huIgG1, linker …, produced in CHO) (Fc fusion, not shown: a dimerising Fc or GST)
chain: APISSHCRLDKSNFQQPYITNRTFMLAKEASLADNNTDVRLIGEKLFHGVSMSERCYLMKQVLNFTLEEVLFPQSDRFQPYMQEVVPFLARLSNRLSTCHIEGDDLHIQRNVQKLKDTVKKLGESGEIKAIGELDLLFMSLRNACIDKKVEPKSSDKTHT
B3: IL-22 Fc construct 24 (huIgG1, linker …, produced in E. coli) (Fc fusion, not shown: a dimerising Fc or GST)
chain: APISSHCRLDKSNFQQPYITNRTFMLAKEASLADNNTDVRLIGEKLFHGVSMSERCYLMKQVLNFTLEEVLFPQSDRFQPYMQEVVPFLARLSNRLSTCHIEGDDLHIQRNVQKLKDTVKKLGESGEIKAIGELDLLFMSLRNACIEPKSSDKTHT
B4: IL-22 Fc construct 13 (huIgG1, linker …, produced in CHO) (Fc fusion, not shown: a dimerising Fc or GST)
chain: APISSHCRLDKSNFQQPYITNRTFMLAKEASLADNNTDVRLIGEKLFHGVSMSERCYLMKQVLNFTLEEVLFPQSDRFQPYMQEVVPFLARLSNRLSTCHIEGDDLHIQRNVQKLKDTVKKLGESGEIKAIGELDLLFMSLRNACIKVDKKVEPKSSDKTHT

The test concerns the target T1, human IL-22 receptor complex IL22R1 and IL10R2, overexpressed on HEK 293 cells (human). As to the kind of experiment: cell-based or functional assay.
The molecule B1 yielded an EC50 (pM), STAT3 luciferase reporter assay of 20 pM.

In the case of B2, the EC50 (pM), STAT3 luciferase reporter assay stood at 25 pM.

As for B3, the EC50 (pM), STAT3 luciferase reporter assay was 16 pM.

The molecule B4 had an EC50 (pM), STAT3 luciferase reporter assay of 25 pM.

Values taken from US20180355009A1.
